Source: the supplement of paper PMC10126150
± gives the standard deviation of the averaged measurements.

tested on: ATP; assay: switch fluorescence ratio, 500 uM ATP over buffer (Cy3 cluster intensity, sum of 5 cycles each) (fold (ratio)); higher = stronger signal-on switching upon ATP binding; sequences stand for … in TCGTCGGCAGCGTCAGATGTGTATAAGAGACAGTTTTTTTTTTTTTTTTTTTTTTTTT…TC; details: aptamer strand: ATP DNA aptamer (quencher-CACCTGGGGGAGTATTGCGGAGGAAGG + anchor), 100 nM annealed; ATP concentration: 500 uM
Method in brief: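 Clusters with intensities outside 100-1000 RFU were excluded. The remaining Cy3-labelled switching-strand clusters on a modified Illumina MiSeq flow-cell had been annealed to 100 nM quencher-labelled ATP aptamer and imaged in selection buffer, then after 15 min with 500 uM ATP at 22 °C, for five cycles separated by NaOH stripping and re-annealing. The fluorescence ratio, averaged per switch-domain sequence, is each cluster's summed target-cycle Cy3 intensity over its summed buffer-cycle Cy3 intensity.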
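Further: ATP exposure 15 min at 22 °C before imaging.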

Row | Sequence | switch fluorescence ratio
1 | AGATAGGGGG | 1 ± 0.034
2 | AGATAGGTTG | 0.974 ± 0.038
3 | AGATAGTTGG | 0.99 ± 0.038
4 | AGATATGGTT | 0.994 ± 0.048
5 | AGATATTCCG | 0.987 ± 0.02
6 | AGATATTTGG | 0.994 ± 0.018
7 | AGATCCGGGT | 0.992 ± 0.025
8 | AGATCGAACT | 0.994 ± 0.019
9 | AGATCGACGC | 1.19 ± 0.026
10 | AGATCGTGAA | 1 ± 0.0032
11 | AGATCTATAC | 1.018 ± 0.0096
12 | AGATCTTGTA | 0.991 ± 0.065
13 | AGATGAAGTG | 0.99 ± 0.019
14 | AGATGAGAGA | 1 ± 0.016
15 | AGATGAGAGT | 1 ± 0.018
16 | AGATGAGGAC | 0.922 ± 0.049
17 | AGATGGAATT | 0.994 ± 0.048
18 | AGATGGATAA | 0.99 ± 0.015
19 | AGATGGCATG | 0.987 ± 0.019
20 | AGATGGCTGG | 1.02 ± 0.012
21 | AGATGTAGGC | 1.03 ± 0.038
22 | AGATGTGGGT | 0.972 ± 0.02
23 | AGATGTTCCG | 1.05 ± 0.018
24 | AGATGTTGGG | 0.992 ± 0.07
25 | AGATTACGAG | 1.02 ± 0.026

Row | Sequence | switch fluorescence ratio
26 | AGATTATCGT | 1.007 ± 0.0088
27 | AGATTATTGA | 0.943 ± 0.031
28 | AGATTCTCGA | 0.998 ± 0.011
29 | AGATTGAATT | 1.02 ± 0.062
30 | AGATTGGGCA | 0.981 ± 0.011
31 | AGATTGGTTC | 0.9953 ± 0.0044
32 | AGATTGTACA | 1.02 ± 0.02
33 | AGATTTTCGC | 1 ± 0.0091
34 | AGATTTTGTG | 0.9922 ± 0.0038
35 | AGCAAAGAAT | 1.02 ± 0.042
36 | AGCAAAGTGT | 1.02 ± 0.071
37 | AGCAACAGTT | 1.19 ± 0.28
38 | AGCAATAGGT | 1.94 ± 0.46
39 | AGCAATGCTT | 3.09 ± 0.29
40 | AGCACAGGGG | 0.985 ± 0.045
41 | AGCACATGTA | 0.998 ± 0.021
42 | AGCACGCTTT | 1.019 ± 0.0063
43 | AGCACGGCAG | 0.991 ± 0.021
44 | AGCACGTATC | 1.09 ± 0.059
45 | AGCAGAAAAT | 1.01 ± 0.025
46 | AGCAGGACCC | 1.23 ± 0.054
47 | AGCAGGAGCC | 1.061 ± 0.0063
48 | AGCAGGAGGG | 1.022 ± 0.0081
49 | AGCAGGCGAA | 1.009 ± 0.0035
50 | AGCAGGGCTG | 0.99566 ± 0.00073

Row | Sequence | switch fluorescence ratio
51 | AGCAGGGGAC | 1.18 ± 0.23
52 | AGCAGGGGGA | 1.01 ± 0.034
53 | AGCAGGGTGG | 1.02 ± 0.038
54 | AGCAGGTGTG | 1.18 ± 0.048
55 | AGCAGTTGGG | 1.03 ± 0.065
56 | AGCATAATTG | 1.01 ± 0.0076
57 | AGCATACAAA | 0.98 ± 0.012
58 | AGCATAGTCG | 1.04 ± 0.029
59 | AGCATCATTT | 0.971 ± 0.024
60 | AGCATGTGGT | 1 ± 0.026
61 | AGCATTAATT | 0.988 ± 0.043
62 | AGCATTACGT | 2.02 ± 0.089
63 | AGCATTGTGG | 0.996 ± 0.018
64 | AGCATTTTTC | 1.02 ± 0.028
65 | AGCCAGGGGG | 1.03 ± 0.043
66 | AGCCCTGGCG | 0.9504 ± 0.0071
67 | AGCCGAGTGC | 1.02 ± 0.06
68 | AGCCGGGGGA | 1.05 ± 0.071
69 | AGCCTCCGGT | 1.13 ± 0.073
70 | AGCCTTTGTC | 0.982 ± 0.041
71 | AGCGAAATCT | 1.08 ± 0.03
72 | AGCGAACGGG | 1.05 ± 0.025
73 | AGCGACCCGG | 1.08 ± 0.033
74 | AGCGAGGTCT | 0.977 ± 0.027
75 | AGCGCTTATG | 1 ± 0.022

Row | Sequence | switch fluorescence ratio
76 | AGCGGATCGG | 0.991 ± 0.02
77 | AGCGGGGATA | 1.05 ± 0.024
78 | AGCGGGGGGG | 1.02 ± 0.036
79 | AGCGGGTTTC | 1.02 ± 0.015
80 | AGCGTAGTGG | 1.027 ± 0.0061
81 | AGCGTATGCA | 1.02 ± 0.024
82 | AGCGTGATAC | 4.4 ± 0.36
83 | AGCGTTGAAG | 0.997 ± 0.022
84 | AGCGTTGAGT | 0.985 ± 0.032
85 | AGCTAATTCG | 1.03 ± 0.045
86 | AGCTAGCAG | 1.042 ± 0.0036
87 | AGCTAGCAGG | 0.974 ± 0.039
88 | AGCTAGGGGA | 1.08 ± 0.077
89 | AGCTAGTATG | 0.993 ± 0.016
90 | AGCTATGCGC | 0.963 ± 0.056
91 | AGCTATGTTT | 0.979 ± 0.04
92 | AGCTATTGGG | 0.975 ± 0.045
93 | AGCTCATCGC | 1.05 ± 0.023
94 | AGCTCCTCAT | 1.1 ± 0.03
95 | AGCTCGACGC | 1.19 ± 0.064
96 | AGCTCGGGTA | 0.998 ± 0.025
97 | AGCTCTGCTA | 1.02 ± 0.02
98 | AGCTGAAGCC | 1.03 ± 0.028
99 | AGCTGAAGTG | 0.972 ± 0.018
100 | AGCTGACAGT | 0.981 ± 0.0044

Row | Sequence | switch fluorescence ratio
101 | AGCTGAGGGA | 1.015 ± 0.0066
102 | AGCTGATGGG | 1.01 ± 0.014
103 | AGCTGCTACG | 0.996 ± 0.027
104 | AGCTGGATGC | 1.04 ± 0.036
105 | AGCTGGCAGC | 1.009 ± 0.0012
106 | AGCTGGCTAA | 0.967 ± 0.014
107 | AGCTGTAGTT | 1 ± 0.034
108 | AGCTTACTGT | 1.08 ± 0.019
109 | AGCTTATGTC | 0.935 ± 0.057
110 | AGCTTCGGAC | 1.35 ± 0.12
111 | AGCTTCGTTC | 1.014 ± 0.0052
112 | AGCTTTAGTT | 1.008 ± 0.0019
113 | AGCTTTGGGT | 1.01 ± 0.016
114 | AGGAAAAAAA | 2.85 ± 2.6
115 | AGGAACATTA | 1.01 ± 0.054
116 | AGGAAGAGGC | 1.08 ± 0.18
117 | AGGAAGCAGT | 1.018 ± 0.0085
118 | AGGAAGCTCT | 1.03 ± 0.023
119 | AGGAAGGCA | 0.975 ± 0.05
120 | AGGAATAAA | 0.976 ± 0.052
121 | AGGAATATAC | 1.11 ± 0.066
122 | AGGAATCCGT | 1.03 ± 0.022
123 | AGGAATGGCT | 0.985 ± 0.017
124 | AGGAATGTTA | 1.03 ± 0.018
125 | AGGAATTGGA | 1.01 ± 0.1

Row | Sequence | switch fluorescence ratio
126 | AGGAATTTTT | 0.968 ± 0.018
127 | AGGACAGCAT | 1.07 ± 0.023
128 | AGGACGGCCA | 0.998 ± 0.021
129 | AGGACGGGGG | 1.02 ± 0.033
130 | AGGACTTGAA | 1.02 ± 0.035
131 | AGGAGAAAAT | 1.04 ± 0.028
132 | AGGAGACGAA | 0.985 ± 0.031
133 | AGGAGAGGTG | 1.102 ± 0.002
134 | AGGAGATGGG | 1.02 ± 0.034
135 | AGGAGGAAGG | 1.05 ± 0.086
136 | AGGAGGACGT | 0.964 ± 0.06
137 | AGGAGGGCGT | 0.969 ± 0.018
138 | AGGAGGGTAG | 1 ± 0.021
139 | AGGAGGGTGG | 1.02 ± 0.044
140 | AGGAGGTATG | 0.976 ± 0.027
141 | AGGAGGTGGT | 1.04 ± 0.015
142 | AGGAGGTTCC | 1.02 ± 0.061
143 | AGGAGTATGA | 1.03 ± 0.029
144 | AGGAGTCTAT | 0.9774 ± 0.0094
145 | AGGAGTGCCA | 1.017 ± 0.0093
146 | AGGAGTGTCA | 0.965 ± 0.013
147 | AGGAGTGTGG | 1.01 ± 0.031
148 | AGGAGTTATG | 1.015 ± 0.0046
149 | AGGATAAAGT | 0.9875 ± 0.0077
150 | AGGATAGTGT | 0.985 ± 0.036

Row | Sequence | switch fluorescence ratio
151 | AGGATCGACG | 0.925 ± 0.013
152 | AGGATGATGC | 0.979 ± 0.026
153 | AGGATGCTCA | 1.01 ± 0.011
154 | AGGATGGTGA | 0.968 ± 0.015
155 | AGGATGGTTA | 0.968 ± 0.076
156 | AGGATGTAAA | 1.025 ± 0.0045
157 | AGGATTGGTT | 1 ± 0.025
158 | AGGCAAAAAT | 1.008 ± 0.004
159 | AGGCAAAGTT | 0.989 ± 0.026
160 | AGGCAACCAA | 1.02 ± 0.017
161 | AGGCACGTGT | 1.02 ± 0.015
162 | AGGCAGAATC | 1.01 ± 0.037
163 | AGGCAGCTGT | 1.01 ± 0.018
164 | AGGCAGGCCA | 1.17 ± 0.056
165 | AGGCAGGGAT | 1.01 ± 0.057
166 | AGGCAGGTAC | 1.246 ± 0.0051
167 | AGGCAGGTTG | 0.985 ± 0.019
168 | AGGCATAAGG | 0.9897 ± 0.0077
169 | AGGCATTGGC | 0.997 ± 0.048
170 | AGGCATTTTA | 0.983 ± 0.053
171 | AGGCCCGTGT | 0.98 ± 0.068
172 | AGGCCCTTTA | 1.12 ± 0.17
173 | AGGCCGGAAG | 0.9945 ± 0.0095
174 | AGGCCGTAGG | 0.937 ± 0.048
175 | AGGCCTGAAA | 0.983 ± 0.07

Row | Sequence | switch fluorescence ratio
176 | AGGCCTGAGC | 1 ± 0.025
177 | AGGCCTTGTT | 0.974 ± 0.019
178 | AGGCGAGGAT | 1.012 ± 0.0075
179 | AGGCGATCTG | 1.01 ± 0.041
180 | AGGCGCAGGT | 1.01 ± 0.021
181 | AGGCGCCTGT | 1.02 ± 0.017
182 | AGGCGCTCTG | 0.99 ± 0.0045
183 | AGGCGGACGT | 1 ± 0.0089
184 | AGGCGGGGAG | 1.02 ± 0.026
185 | AGGCGGGGCG | 1.02 ± 0.022
186 | AGGCGTAAGG | 1.03 ± 0.015
187 | AGGCTCATGG | 1.028 ± 0.0089
188 | AGGCTGGGGG | 0.996 ± 0.013
189 | AGGCTGGTCT | 0.952 ± 0.1
190 | AGGCTTTCTC | 1.14 ± 0.11
191 | AGGCTTTGG | 0.999 ± 0.051
192 | AGGGAAAAAC | 2.45 ± 2
193 | AGGGAAAAAG | 1.02 ± 0.045
194 | AGGGAAAGTT | 1.01 ± 0.024
195 | AGGGAAGCT | 1.05 ± 0.015
196 | AGGGAAGGAT | 1.01 ± 0.047
197 | AGGGAAGGGG | 1.1 ± 0.17
198 | AGGGAATGTG | 0.987 ± 0.034
199 | AGGGACAGAC | 1.17 ± 0.054
200 | AGGGACGTAG | 1.05 ± 0.026
